B1: IL-23 mutant D265A (ligand)
chain: IWELKKDVYVVELDWYPDAPGEMVVLTCDTPEEDGITWTLDQSSEVLGSGKTLTIQVKEFGDAGQYTCHKGGEVLSHSLLLLHKKEDGIWSTDILKDQKEPKNKTFLRCEAKNYSGRFTCWWLTTISTDLTFSVKSSRGSSDPQGVTCGAATLSAERVRGDNKEYEYSVECQEDSACPAAEESLPIEVMVDAVHKLKYENYTSSFFIRDIIKPDPPKNLQLKPLKNSRQVEVSWEYPDTWSTPHSYFSLTFCVQVQGKSKREKKARVFTDKTSATVICRKNASISVRAQDRYYSSSWSEWASVPCSGSGSSRGGSGSGGSGGGGSKLRAVPGGSSPAWTQCQQLSQKLCTLAWSAHPLVGHMDLREEGDEETTNDVPHIQCGDGCDPQGLRDNSQFCLQRIHQGLIFYEKLLGSDIFTGEPSLLPDSPVGQLHASLLGLSQLLQPEGHHWETQQIPSLSPSQPWQRLLLRFKILRSLQAFVAVAARVFAHGAATLSP
B2: IL-23 mutant R266A (ligand)
chain: IWELKKDVYVVELDWYPDAPGEMVVLTCDTPEEDGITWTLDQSSEVLGSGKTLTIQVKEFGDAGQYTCHKGGEVLSHSLLLLHKKEDGIWSTDILKDQKEPKNKTFLRCEAKNYSGRFTCWWLTTISTDLTFSVKSSRGSSDPQGVTCGAATLSAERVRGDNKEYEYSVECQEDSACPAAEESLPIEVMVDAVHKLKYENYTSSFFIRDIIKPDPPKNLQLKPLKNSRQVEVSWEYPDTWSTPHSYFSLTFCVQVQGKSKREKKDAVFTDKTSATVICRKNASISVRAQDRYYSSSWSEWASVPCSGSGSSRGGSGSGGSGGGGSKLRAVPGGSSPAWTQCQQLSQKLCTLAWSAHPLVGHMDLREEGDEETTNDVPHIQCGDGCDPQGLRDNSQFCLQRIHQGLIFYEKLLGSDIFTGEPSLLPDSPVGQLHASLLGLSQLLQPEGHHWETQQIPSLSPSQPWQRLLLRFKILRSLQAFVAVAARVFAHGAATLSP

How the values were obtained:
[1] = target: T1, IL-23R extracellular domain (human, UniProt Q5VWK5 24-355); assay: ELISA, IL-23R coated
T1 construct: Methods print IL-23/Fc Chimera for the coated receptor; also called IL-23R-HIS; IL-23/Fc Chimera (so in the source); not shown: Fc (R&D Systems chimera) or HIS tag (in-house IL-23R-HIS)
T1 sequence: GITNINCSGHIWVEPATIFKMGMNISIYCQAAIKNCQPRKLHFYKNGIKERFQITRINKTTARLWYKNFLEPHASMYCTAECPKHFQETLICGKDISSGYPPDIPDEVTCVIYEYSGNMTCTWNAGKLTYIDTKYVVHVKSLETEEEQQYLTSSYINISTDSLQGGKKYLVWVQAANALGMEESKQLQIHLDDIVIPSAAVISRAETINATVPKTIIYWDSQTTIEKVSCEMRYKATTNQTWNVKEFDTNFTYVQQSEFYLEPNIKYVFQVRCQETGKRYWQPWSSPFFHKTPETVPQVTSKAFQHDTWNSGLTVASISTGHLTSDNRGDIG
Protocol: (§1) The plate was then washed three times with wash buffer. The wells were then blocked by adding 200 μl of blocking buffer to each well and incubating the plate at 25° C. for 1 hour. The supernatant was diluted in antibody diluent sufficient to generate a titration curve and 100 µl was added to wells then incubated for 1 hour at 25° C. The plate was then washed as previously described and 100 μl of Monoclonal Anti-FLAG® M2-HRP (Sigma-Aldrich®) at 1:1000 in antibody diluent was used to detect bound cytokine. After incubation at 25° C. for 1 hour the plate was washed again as previously described. 100 μl TMB substrate solution (Sigma-Aldrich®) was added to each well and the colour allowed to develop for 5 minutes. 100 μl of 1M HCl was added to terminate the colour development reaction and absorbance was determined at 450 nm (ref. 620 nm).

IL-12Rβ1/Fc Chimera = target: T2, IL-12Rβ1/Fc Chimera (human, UniProt P42701 25-545); assay: ELISA, IL-12Rβ1 coated
T2 construct: not shown: Fc of the bought R&D Systems chimera
Protocol: as §1

Binder | binding result [1] | binding result (IL-12Rβ1/Fc Chimera)
B1 | binds | binds
B2 | binds | binds

— US20110262445A1 (CEPHALON AUSTRALIA, published 2011)
